In this test the target is EsxE-EsxF heterodimer (Mycobacterium tuberculosis) (UniProt P9WNH8). In words: negative-stain electron microscopy.

Among the data in paper PMC7810871 are stoichiometry N values, retold here.

As a reminder, the stoichiometry N is a count of units in the complex or per binding partner.

In turn, “EsxE-EsxF heterodimer (from UniProt P9WNH8 1-90; P9WNH6 1-103) (complex)” came in with a stoichiometry N of 5.
